Patent publication US20050118183A1 (IMMUNOGEN, published 2005)

Experiments:
CD33 (human) [1] = molecular target: CD33 (human) (UniProt P20138); experiment: direct binding on HL-60 membranes; direct on membranes
CD33 (human) [2] = molecular target: CD33 (human) (UniProt P20138); experiment: direct binding on HL-60 whole cells; direct on cells
CD33 (human) [3] = molecular target: CD33 (human) (UniProt P20138); experiment: competitive binding on HL-60 membranes; competitive on membranes
CD33 = molecular target: T1, CD33 (human, UniProt P20138 18-364); experiment: flow cytometry on HL-60 cells
T1 construct: whole, on cells; Presented on U-937 cells, HL-60 whole cells, dried HL-60 plasma membranes, THP-1 cells and CD33-transfected 3T3 murine fibroblasts; also called CD33 antigen; human CD33
T1 sequence (P20138 18-364): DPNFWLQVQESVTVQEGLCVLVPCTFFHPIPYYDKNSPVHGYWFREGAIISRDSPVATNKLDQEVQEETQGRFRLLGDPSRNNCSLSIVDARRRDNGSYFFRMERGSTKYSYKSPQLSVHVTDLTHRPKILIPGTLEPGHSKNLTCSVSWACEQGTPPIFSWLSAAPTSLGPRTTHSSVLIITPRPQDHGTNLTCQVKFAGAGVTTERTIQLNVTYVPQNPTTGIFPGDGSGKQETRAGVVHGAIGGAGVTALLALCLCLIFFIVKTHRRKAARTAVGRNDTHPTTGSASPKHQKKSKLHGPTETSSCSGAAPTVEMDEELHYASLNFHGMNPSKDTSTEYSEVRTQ
Procedure: HL-60 cells were incubated with various concentrations of either My9-6 antibody or My9-6-DM1. The cells were then washed and incubated with a secondary FITC-labeled anti-murine IgG antibody. Following an additional wash, cells were fixed with 2% formaldehyde and cell-associated fluorescence was quantified using a BD FACScan flow cytometer.

Chain of CD33 (human) (P20138 18-364): as above

Row | Kd (CD33 (human) [1]) [nM] | Kd (CD33 (human) [2]) [nM] | Kd (CD33 (human) [3]) [nM] | binding result (CD33) | Molecule
1 | 0.0513 | 1.1 | 0.174 | – | murine My9-6 antibody
2 | – | – | – | binds | My9-6-DM1 immunoconjugate (antibody, IgG1, V domains shown, DM1 (thiol-containing maytansinoid) linked by disulfide through SPP; 3-5 pyridyldithio groups introduced per molecule of antibody; residues and chain not stated) VH: QVQLQQPGAEVVKPGASVKMSCKASGYTFTSYYIHWIKQTPGQGLEWVGVIYPGNDDISYNQKFKGKATLTADKSSTTAYMQLSSLTSEDSAVYYCAREVRLRYFDVWGAGTTVTVSS VL: NIMLTQSPSSLAVSAGEKVTMSCKSSQSVFFSSSQKNYLAWYQQIPGQSPKLLIYWASTRESGVPDRFTGSGSGTDFTLTISSVQSEDLAIYYCHQYLSSRTFGGGTKLEIKR
